Data from the supplement of paper PMC10567573.
± gives the standard deviation.

Test: protein stability index of a GFP-peptide fusion (GPS, HEK-293T) (PSI 1-6); higher = more stable
[1] = treatment: DMSO, c terminus: a fixed tail appended
[2] = treatment: MLN4924 1 uM, 8 h, c terminus: a fixed tail appended
[3] = treatment: DMSO, c terminus: native
[4] = treatment: MLN4924 1 uM, 8 h, c terminus: native
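Further: 24-mer peptide tiles fused after GFP, lentivirally expressed, FACS-sorted into six equal bins by GFP/DsRed ratio, decoded by Illumina sequencing, PSI is the read-weighted mean bin number.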

Sequence | protein stability index [1] | protein stability index [2] | protein stability index [3] | protein stability index [4]
CENFPEMATYLRYVRRLDFFEKPD [CSNK1G3] | 2.21 ± 0.25 | 2.59 ± 0.51 | – | –
DSLEKTDDDKYKITLKYPHYFPVM [NLN] | 2.73 ± 0.27 | 2.7 ± 0.28 | – | –
LPRRPRKGSSELGFPRVAPEDEVI [RNF208] | 4.37 ± 0.23 | 4.33 ± 0.15 | – | –
LDVECHEKEKHVNQLQTKVAVLEQ [SASS6] | 5.03 ± 0.11 | 5.07 ± 0.21 | – | –
KRKVDTGGFLSESKDCKPPVYLLL [MYBL2] | 2.01 ± 0.51 | 2.61 ± 0.72 | – | –
LEVMEEEELANLRASQREYEELRN [RSPH3] | 5.22 ± 0.43 | 5.09 ± 0.18 | – | –
RAEQDSEVGPQEINKEELEGNSMR [GMCL1] | 5.6 ± 0.26 | 5.63 ± 0.14 | – | –
SWGWDLGRSRLYHDGKNQPGVAYP [SPSB4] | 2.72 ± 0.29 | 2.56 ± 0.26 | – | –
EDKIFPVPEEPPVKKLMRTSTPPP [ZBED1] | 4.8 ± 0.27 | 4.61 ± 0.34 | – | –
PLPTDPMLGLALGGLVVSAASLAG [TSPAN10] | 2.96 ± 0.63 | 2.65 ± 0.63 | – | –
DDCDDDDDDAQILPSPVQACSEDS [DRICH1] | 5.48 ± 0.46 | 5.62 ± 0.24 | – | –
IDKGDESWVTDMCKVGASSDPCGQ [PNLIPRP1] | 4.52 ± 0.48 | 4.66 ± 0.36 | – | –
FSGHFLCTSSWDKNLKIWNVHTGE [WDR88] | 2.71 ± 0.71 | 2.55 ± 0.15 | – | –
RGNPELARLRPGLAVLGADERIFS [HAGHL] | 3.42 ± 0.47 | 3.65 ± 0.14 | – | –
ERCFRGSSYPVCVSKVVKGGSSGK [OAS1] | 3.84 ± 0.13 | 4.07 ± 0.12 | – | –
VACFLTRGDLWISWEEGMKVFEEL [CRY1] | 2.67 ± 0.71 | 2.33 ± 0.39 | – | –
DNLGYRTGYPYRYPALREKSKKYS [ADD1] | 3.56 ± 0.13 | 3.69 ± 0.1 | – | –
SRELASMNLDIVDLLKKAKFHHSD [RHOBTB3] | 3.2 ± 0.2 | 3.09 ± 0.23 | – | –
RLKRTRLGLDDFESLKVIGRGAFG [STK38L] | 2.49 ± 0.22 | 2.7 ± 0.31 | – | –
LDREIRLQRLSHSGSRVRVGFRLC [SCNN1D] | 2.39 ± 0.17 | 2.48 ± 0.16 | – | –
SFALYLAGFCMFVLSLVKKHYRLQ [CDS1] | 2.25 ± 0.36 | 2.04 ± 0.44 | – | –
ERTKSRLVNTSENLSKSRKILRSM [VTI1B] | 3.79 ± 0.21 | 3.87 ± 0.19 | – | –
HDFIEHILRKLPQQREKLSLIRKH [CCND2] | 2.3 ± 0.1 | 2.45 ± 0.25 | – | –

Sequence | protein stability index [1] | protein stability index [2] | protein stability index [3] | protein stability index [4]
LFLDLLQSYKDLCERHEKGVLHKH [SNX8] | 2.49 ± 0.12 | 2.64 ± 0.37 | – | –
AFVLSSNSLKHCTELELFKATCRW [KLHL13] | 2.38 ± 0.55 | 2.23 ± 0.52 | – | –
VAVALRKPDGSRHQDVPSQDDSKP [AASDHPPT] | 5.15 ± 0.26 | 5 ± 0.17 | – | –
GVWHQMGTDGYMPRELASMSLVLH [KLHDC10] | 2.08 ± 0.21 | 2.06 ± 0.27 | – | –
PLPEAIDPDVGVNSLQSYQLSPNK [PCDHGA10] | 5.35 ± 0.26 | 5.25 ± 0.24 | – | –
PVSCCLGLLLESLVPFIVNDNITN [DYNC2LI1] | 2.57 ± 0.94 | 2.79 ± 0.58 | – | –
GSSFSGRVFRVTFLMLAVSLTVPL [APMAP] | 3.06 ± 0.3 | 3.05 ± 0.35 | – | –
DRVILSSSTSCLMPSKLFAGLVHV [CRYL1] | 2.27 ± 0.64 | 2.58 ± 0.49 | – | –
IFQMVIICLMCVHSLERAGSKQYS [SMG5] | 3.21 ± 0.28 | 3.27 ± 0.48 | – | –
LRQQCAQVLRNNPDALSDVGEVPY [ELOA2] | 3.88 ± 0.21 | 3.93 ± 0.16 | – | –
NVKYLKKILDELEKVLDQVETELQ [GDAP1] | 4.25 ± 0.077 | 4.23 ± 0.14 | – | –
AGAEPLPRNGDQWHEIRQGRLPRI [WEE1] | 3.86 ± 0.47 | 4.24 ± 0.4 | – | –
IELQAQHSMRNSLESTLAETEARY [KRT36] | 4.38 ± 0.15 | 4.23 ± 0.23 | – | –
TLGGELGALEALELSPPLSPASHV [FOXJ1] | 4.12 ± 0.3 | 4.26 ± 0.098 | – | –
FGVTYLEDYSAEYIIQQGGWGTVF [BCL2L13] | 2.48 ± 0.38 | 2.33 ± 0.26 | – | –
RSSALWSEMLDITMKESLTTREIR [NET1] | 3.13 ± 0.23 | 3.23 ± 0.23 | – | –
LCKLFPFLQKSSVGITVLNLCALS [EDNRA] | 2.47 ± 0.18 | 2.72 ± 0.57 | – | –
WRKRFTEQPITDFCSVIRINSTAP [ZNF277] | 2.48 ± 0.55 | 2.23 ± 0.087 | – | –
RRGIALIFNHERFFWHLTLPERRG [CASP6] | 2.75 ± 1.6 | 2.04 ± 0.68 | – | –
GGPQRIPAHRFVLAAGSAVFDAMF [BTBD1] | 2.52 ± 0.31 | 2.2 ± 0.56 | – | –
RFVPSNPIGILTTSYCELLQNKVP [PPTC7] | 2.57 ± 0.29 | 2.51 ± 0.18 | – | –
LSARDHQKLEREARICRLLKHPNI [CAMK2A] | 2.98 ± 0.069 | 3.01 ± 0.26 | – | –
GRRQRKSEKRRDPPNGPNLPMATV [WASL] | 4.7 ± 0.37 | 4.47 ± 0.13 | – | –

Sequence | protein stability index [1] | protein stability index [2] | protein stability index [3] | protein stability index [4]
IEVNGENVEDASHEEVVEKVKKSG [PDZK1] | 5.63 ± 0.16 | 5.34 ± 0.38 | – | –
LLRHRMNWLGRPSKVLSLQDLCCR [RAB40A] | 2.62 ± 0.27 | 2.71 ± 0.35 | – | –
CHFQALGCRTTHSNQEVLQSCLLV [PYCR3] | 2.8 ± 0.23 | 2.67 ± 0.54 | – | –
MGLVETKLAIIPGGGGTQRLPRAI [AUH] | 2.99 ± 0.82 | 3.34 ± 0.35 | – | –
VDLNRNFPDLNTYIYYNEKYGGPN [CPN1] | 2.64 ± 0.18 | 2.53 ± 0.52 | – | –
ILTSQPGKEVVKQLEEGLKDTDLA [M1AP] | 5.05 ± 0.28 | 5.17 ± 0.17 | – | –
RLHLAFKRQVPTEQARAYAEKNCM [RAB40C] | 2.98 ± 0.15 | 3.1 ± 0.26 | – | –
ESSILGTDIDLQTIDNDIVSMEIF [M1AP] | 3.86 ± 0.34 | 3.74 ± 0.35 | – | –
KARVKPPEGYDVVAVYPNAKVELV [PDLIM4] | 3.02 ± 0.18 | 3.31 ± 0.28 | – | –
RVQGGCYRFDSSSCSSEDNLSLVC [DRICH1] | 2.58 ± 0.43 | 2.62 ± 0.32 | – | –
SSPDLDDMKLIILANRLCLPHLVA [RHOBTB2] | 2.55 ± 0.5 | 2.44 ± 0.19 | – | –
VDKDQPSILNSCEDPVPGMLFFLP [FBXO34] | 3.32 ± 0.39 | 3.02 ± 0.36 | – | –
GGGLTGVSGSHFVGVDGVRAFLQT [PCDHGA10] | 2.82 ± 0.29 | 2.83 ± 0.32 | – | –
LVSWLPRLNAYRGYCSNQLAAKAL [NET1] | 2.5 ± 1 | 2.1 ± 0.2 | – | –
MQPSKPQQPSLNTMIQQQNMQQPM [CLINT1] | 4.1 ± 0.13 | 4.34 ± 0.46 | – | –
SAASSAAAGEPLECPTCGHSYNVT [RNF208] | 4.87 ± 0.27 | 4.77 ± 0.24 | – | –
MAYAKLMLTVMTKYQANITETQRL [FANCE] | 3.16 ± 0.75 | 2.95 ± 0.52 | – | –
GDWHSPTLIREKSFGACLREETPR [ELOA2] | 3.61 ± 0.3 | 3.76 ± 0.32 | – | –
QPKKPEDEPQETAYRTQVSSCCLH [PKD2L1] | 4.88 ± 0.27 | 4.96 ± 0.05 | – | –
IDRMFPEMSIHLSRPNGTSAMLLV [MED27] | 2.65 ± 0.71 | 2.75 ± 0.52 | – | –
KVLNMWCCCFFKRRKRKTIQRHK [CSNK1G3] | – | – | 2.56 ± 0.16 | 2.86 ± 0.22
RSSGSEGTPADTGDLSPGHGASAP [PWWP2B] | 5.38 ± 0.34 | 5.35 ± 0.2 | – | –
SAQNGLASSLPAEVHSLTLSPPEQ [PLAGL1] | 5 ± 0.15 | 5.03 ± 0.22 | – | –

Sequence | protein stability index [1] | protein stability index [2] | protein stability index [3] | protein stability index [4]
ILKQLIADVTLDPETAHPNLVLSE [TRIM39] | 2.67 ± 0.085 | 2.81 ± 0.29 | – | –
HNLIEQVSLGLGQPWHAVMDIESL [FBXO33] | 2.59 ± 0.52 | 2.48 ± 0.16 | – | –
PSDKMKWCLRVNPKGLDDESKDYL [SPOPL] | 3.22 ± 0.34 | 3.81 ± 0.47 | – | –
MCLKKNHEEEVSVLRCQLGDRLNV [KRT36] | 3.24 ± 0.29 | 3.02 ± 0.35 | – | –
YTGPSSSGRFAGREWYYGNVTRHQ [NCK2] | 2.35 ± 0.31 | 2.65 ± 0.58 | – | –
LLTLLPQLQEAWQQRTPSPVPGG [RSAD1] | – | – | 3.3 ± 0.21 | 2.83 ± 0.54
AANHWVLPAAEFHGLWDSLVYDVE [TRIP13] | 2.62 ± 0.31 | 2.66 ± 0.22 | – | –
PNAFIGSDVVDWLYHNVEGFTDRR [DVL3] | 3.13 ± 0.26 | 3.15 ± 0.32 | – | –
LRGPRERAPSERSGPAASEHSHRS [DVL3] | 5.14 ± 0.3 | 5.34 ± 0.057 | – | –
EKMEEEEQTCDPDSSLHWSSSYSP [ZNF396] | 5.3 ± 0.32 | 5.56 ± 0.065 | – | –
IPGKVIDEIYRVLRYVNSTRAPQR [FBXO28] | 2.2 ± 0.21 | 2.41 ± 0.28 | – | –
VIKGVLFRIFIIWAISSWFRRGPA [CLPTM1] | 2.75 ± 0.58 | 2.87 ± 0.68 | – | –
QRLLFSGASDNSIIMWDIGGRKGR [WDFY1] | 3.16 ± 0.55 | 3.39 ± 0.46 | – | –
EEAQPMAAPEGKRSLANGPNAGEQ [EID1] | 5.16 ± 0.34 | 5.48 ± 0.31 | – | –
SAASTSFQPQPVQPQQGYIPPMAQ [ZNF207] | 4.3 ± 0.17 | 4.38 ± 0.1 | – | –
TLQGLYLVYHPVQLSTPHAVGVLL [DHCR7] | 3.18 ± 0.49 | 2.97 ± 0.5 | – | –
ELEEDDGHGAEQAAAFPTEDSRTS [EHMT1] | 5.65 ± 0.17 | 5.7 ± 0.088 | – | –
GMGGIQNEKETMQSLNDRLASYLD [KRT18] | 3.86 ± 0.18 | 3.84 ± 0.23 | – | –
PNLSLASEDEEEYESGYAFLPDLL [SMG5] | 4.32 ± 0.2 | 4.47 ± 0.15 | – | –
QVKFGQQNPRQVAQSEAEKKLKKD [ZC3H15] | 5.37 ± 0.25 | 5.37 ± 0.076 | – | –
